Test results reported in article PMC9457596, “Optimization of Bifunctional Antisense Oligonucleotides for Regulation of Mutually Exclusive Alternative Splicing of PKM Gene”.

target: T1, hnRNP A1 (UniProt P09651 2-196); assay: EMSA; 150 mM KCl, 50 mM L-Arg, 50 mM L-Glu, 1.5 mM MgCl2, 0.2 mM EDTA, 0.05% BME, 20 mM Na2HPO4, pH 7.0, 4 C, 30 min; 0.5 uM RNA, 0.1-60 uM protein (Kd) or 60 uM (scr); settings: protein: recombinant; label: 5'-6-FAM; G4, intermolecular, two tetrads
T1 sequence (P09651 2-196): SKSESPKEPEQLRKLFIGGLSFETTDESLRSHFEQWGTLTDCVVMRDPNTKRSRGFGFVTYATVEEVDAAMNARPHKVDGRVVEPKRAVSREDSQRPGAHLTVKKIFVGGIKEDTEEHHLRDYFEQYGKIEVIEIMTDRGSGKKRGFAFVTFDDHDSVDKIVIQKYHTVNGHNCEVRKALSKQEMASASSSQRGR

| Binder | Kd |
| --- | --- |
| UAGGUUAGGU (structured_RNA) [D2] | 1200 nM |

same assay, conditions: protein: recombinant; label: 5'-6-FAM; duplex/hairpin

| Binder | Kd |
| --- | --- |
| CAGGUGAGUCAGGUGAGU (structured_RNA) [B2] | 1760 nM |
| CAGGUGAGUCAGGUGAGUCAGGUGAGU (structured_RNA) [B3] | 1990 nM |

same assay, conditions: protein: recombinant; label: 5'-6-FAM; no UV melting transition

| Binder | Kd |
| --- | --- |
| CAGGUAAGUCAGGUAAGUCAGGUAAGU (ssRNA) [A3] | ~1700 nM |
| CAGGUAAGUCAGGUAAGU (ssRNA) [A2] | ~1700 nM |

same assay, conditions: protein: recombinant; label: 5'-6-FAM; single-stranded

| Binder | Kd |
| --- | --- |
| UAGGAUAGGA (ssRNA) [C2] | 1440 nM |

target: T1, hnRNP A1; assay: EMSA; 60 uM protein, 0.5 uM RNA; 150 mM KCl, 50 mM L-Arg, 50 mM L-Glu, 1.5 mM MgCl2, 0.2 mM EDTA, 0.05% BME, 20 mM Na2HPO4, pH 7.0, 4 C, 30 min; 0.5 uM RNA, 0.1-60 uM protein (Kd) or 60 uM (scr); settings: protein: recombinant; label: 5'-6-FAM

| Binder | binding result |
| --- | --- |
| CACAGA (ssRNA) [oligo 21] | no binding |
| UAGG (ssRNA) [oligo 5] | binds |
| UGUAGG (ssRNA) [oligo 7] | binds |
| AUUUA (ssRNA) [oligo 41] | no binding |
| AAGGUGAU (ssRNA) [oligo 20] | no binding |
| CAGGUAAGU (ssRNA) [sequence A (1)] | binds |
| AAGGUAAGU (ssRNA) [oligo 6] | binds |
| UAGGA (ssRNA) [sequence C (3)] | binds |
| CAGGUGAGU (ssRNA) [sequence B (2)] | binds |
| UAGGU (ssRNA) [sequence D] | binds |
